Among the data in the supplement of paper PMC10567573 are protein stability index values, retold here.

A short description of this data set: protein stability index of a GFP-peptide fusion (GPS, HEK-293T) (PSI 1-6); higher = more stable.
[1] abbreviates: treatment: DMSO, c terminus: a fixed tail appended.
The mark [2] stands for this setting: treatment: MLN4924 1 uM, 8 h, c terminus: a fixed tail appended.
The mark [3] stands for this setting: treatment: DMSO, c terminus: native.
Setting [4] is: treatment: MLN4924 1 uM, 8 h, c terminus: native.

± gives the standard deviation.
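Note: 24-mer peptide tiles fused after GFP, lentivirally expressed, FACS-sorted into six equal bins by GFP/DsRed ratio, decoded by Illumina sequencing, PSI is the read-weighted mean bin number.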

Regarding CVHPRGGVIQSVSSWKHGSGTQYV [C18orf25], the protein stability index came to 2.58 ± 0.42 under setting [1] and 2.32 ± 0.39 under setting [2].

With CYYQPAPYVSDGNFSNYYVAHPPV [TENT5C], the protein stability index by setting is: under setting [1], 2.24 ± 0.3; under setting [2], 2.43 ± 0.45.

DAEGLAARDVQKIIGDYFSDQDPR [INTS4] gave a protein stability index under setting [1] of 4.95 ± 0.15 and a protein stability index under setting [2] of 4.86 ± 0.32.

On to DAFVKIVRHEGTRTLWSGLPATLV [SLC25A39], for which the protein stability index stood at 2.6 ± 0.61 under setting [1] and 2.03 ± 0.22 under setting [2].

DAGEESRVQVLKNEVRRGSPVLLG [TIAF1]: the protein stability index by setting is: under setting [1], 4.33 ± 0.092; under setting [2], 4.55 ± 0.24.

As to DASILTEMPTQPGKPLIPPMNRRN [NETO1], the protein stability index was determined as 4.45 ± 0.25 under setting [1] and 4.64 ± 0.13 under setting [2].

As for DATPPVSPINMEDQERIKVERKRL [JUNB], the protein stability index by setting is: under setting [1], 5.53 ± 0.2; under setting [2], 5.36 ± 0.4.

For DCLAAWEEWLLVGTKQGHLLLYRI [VPS39], the protein stability index amounted to 2.92 ± 1.1 under setting [1] and 2.51 ± 0.32 under setting [2].

On to DCSFPGLPRHQDQPHHQPPNRAGA [TRAF3IP2], for which the protein stability index is, setting by setting: under setting [1], 4.91 ± 0.062; under setting [2], 5.03 ± 0.14.

Take DDDAEEEGPKRELGVRRPGGAGKE [TCF25]: the protein stability index by setting is: under setting [1], 5.58 ± 0.2; under setting [2], 5.66 ± 0.15.

In the case of DDDKGDSKETRLTLMEEVLLLGLK [GOLPH3], the protein stability index turned out to be 3.16 ± 0.36 under setting [1] and 3.65 ± 0.32 under setting [2].

Take DDPATLGPHLGLRGVPQSTAASS [DYRK1B]: the protein stability index is, setting by setting: under setting [3], 3.28 ± 0.28; under setting [4], 3.29 ± 0.085.

As to DEMYEVRIAAVEALCMLAQSSPSF [INTS4], the protein stability index reads like this: under setting [1], 2.69 ± 0.81; under setting [2], 2.31 ± 0.11.

Turning to DEPSKPTLALEYTYGRRAKGHNTP [DYNC2LI1], the protein stability index is, setting by setting: under setting [1], 4.48 ± 0.23; under setting [2], 4.65 ± 0.21.

As for DETTRSDISERPSVDDIESETGST [C2CD2L], the protein stability index by setting is: under setting [1], 5.68 ± 0.1; under setting [2], 5.6 ± 0.32.

Consider DFHKPFLGGFRHKVTGVEYHNAGT [IQUB], for which the protein stability index by setting is: under setting [1], 2.88 ± 0.32; under setting [2], 2.88 ± 0.16.

DFKEDLKKFRTKSRTWAGEKSKRE [CDC25A]: the protein stability index reads like this: under setting [1], 4.88 ± 0.52; under setting [2], 4.92 ± 0.15.

Regarding DFLAVLSDYPSPDISPPIFRRGEK [SLA], the protein stability index runs as follows: under setting [1], 2.63 ± 0.18; under setting [2], 2.75 ± 0.51.

Sequence DGKSLVSVTKEGLELPEDEEEKKK [HSP90AB1] yielded a protein stability index under setting [1] of 5.61 ± 0.2 and a protein stability index under setting [2] of 5.44 ± 0.3.

For DGLKRRQQLEEELLRAKIEVEKLK [RAD54B], the protein stability index under setting [1] stood at 4.67 ± 0.31 and the protein stability index under setting [2] came to 4.85 ± 0.32.

Regarding DGNKDVYLSLLRMYLSPPSIHCLG [VPS39], the protein stability index by setting is: under setting [1], 2.94 ± 0.57; under setting [2], 2.72 ± 0.33.

DGSLILVSASRDKTLRVWDLKDDG [WSB1]: the protein stability index by setting is: under setting [1], 2.74 ± 0.31; under setting [2], 3.03 ± 0.21.

Turning to DGSVRIWELREKQQLAAEPVPTGF [WDR41], the protein stability index reads like this: under setting [1], 3.87 ± 0.16; under setting [2], 3.72 ± 0.32.

With DHQTLLSAAHEVELQRQKEAEKLE [NOP53], the protein stability index turned out to be 5.46 ± 0.15 under setting [1] and 5.42 ± 0.38 under setting [2].

In the case of DHSEHLSGSSYRDALQRYGTSHGA [RBMY1A1], the protein stability index is, setting by setting: under setting [1], 3.89 ± 0.12; under setting [2], 4.37 ± 0.38.

DHSGFISLDEFRQTWKLFSSHMNI [PPEF2]: the protein stability index stood at 2.29 ± 0.26 under setting [1] and 2.08 ± 0.36 under setting [2].

Consider DIEDVFYKYGAIRDIDLKNRRGGP [SRSF1], for which the protein stability index by setting is: under setting [1], 3.32 ± 0.48; under setting [2], 3.39 ± 0.17.

DINNNFPDLNTLLWEAEDRQNVPR [CPXM2]: the protein stability index reads like this: under setting [1], 3.78 ± 0.35; under setting [2], 4.15 ± 0.2.

As for DIRLTLMEEVLLLGLKDKEGYTSF [GOLPH3L], the protein stability index under setting [1] was 2.26 ± 0.44 and the protein stability index under setting [2] came out at 2.2 ± 0.55.

For the sequence DKSPSTVRDQGPSIPLTPGDTPIR [FBF1], the protein stability index came out at 5.08 ± 0.18 under setting [1] and 5.26 ± 0.18 under setting [2].

As for DLNRHLDEMCANNDFVQVDPGQVG [FAN1], the protein stability index turned out to be 4.29 ± 0.4 under setting [1] and 4.63 ± 0.058 under setting [2].

Sequence DLPWFRTLSWYFLLCVNYFFYGET [CDS2] displayed a protein stability index under setting [1] of 3.95 ± 0.26 and a protein stability index under setting [2] of 3.23 ± 0.97.

As for DLSAANEKNLLLQNQVDELERKFR [LRRC45], the protein stability index was 3.96 ± 0.38 under setting [1] and 4.08 ± 0.62 under setting [2].

For the sequence DMWRSENQNRAYVTLAAHFLGLGA [ZBED1], the protein stability index turned out to be 2.13 ± 0.24 under setting [1] and 2.01 ± 0.4 under setting [2].

DNIREAFQIYDKEASGYVDRDMFF [EFHC1]: the protein stability index runs as follows: under setting [1], 3.5 ± 0.29; under setting [2], 3.42 ± 0.18.

For DPDGKKIKQIQQLFEEILSNSRQL [FBXO33], the protein stability index by setting is: under setting [1], 2.54 ± 0.41; under setting [2], 2.77 ± 0.24.

Turning to DPLTYKSRLMVVVKMDSSIQPGPF [RHOBTB2], the protein stability index is, setting by setting: under setting [1], 2.05 ± 0.53; under setting [2], 2.08 ± 0.25.

As for DPRVQDFLQRCLESPFSRKLDLWS [NET1], the protein stability index is, setting by setting: under setting [1], 2.34 ± 0.25; under setting [2], 2.27 ± 0.25.

Regarding DPRYELPSRKYISTKAIPEKYGAV [ZBED1], the protein stability index by setting is: under setting [1], 3.55 ± 0.18; under setting [2], 3.55 ± 0.19.

As to DPSKLDSGKELKIDIIPNPQERTL [HSP90AB1], the protein stability index turned out to be 5.15 ± 0.11 under setting [1] and 5.31 ± 0.078 under setting [2].

Consider DPTQRILYRDVMLETFGHLLSIGP [ZNF8], for which the protein stability index is, setting by setting: under setting [1], 2.21 ± 0.23; under setting [2], 2.25 ± 0.22.

Consider DPYLSYRWKRRRSYSREHEGRLRY [CLK3], for which the protein stability index stood at 3.54 ± 0.33 under setting [1] and 3.57 ± 0.56 under setting [2].

For DQDGEYCPEVKLKTTGLEEAAEAE [SRPK2], the protein stability index is, setting by setting: under setting [1], 5.63 ± 0.3; under setting [2], 5.81 ± 0.18.

DQFIPIWTVANMEEIKKLTTDPDL [LARP4]: the protein stability index is, setting by setting: under setting [1], 3.97 ± 0.12; under setting [2], 3.82 ± 0.42.

With DRLWRPSKVLSLQDLCCRAVVSCT [RAB40B], the protein stability index reads like this: under setting [1], 3.01 ± 0.17; under setting [2], 2.8 ± 0.21.

Turning to DSDEATAARLLFNMAGVTFRKFIP [DCTD], the protein stability index is, setting by setting: under setting [1], 2.55 ± 0.19; under setting [2], 2.58 ± 0.59.

Turning to DSEEEVIERANNVKYGLAATVWSS [ALDH8A1], the protein stability index came out at 4.03 ± 0.17 under setting [1] and 4.15 ± 0.17 under setting [2].

As to DSNSGCLGDTQFCFRFRQSSGRRV [DENND6A], the protein stability index runs as follows: under setting [1], 3.24 ± 0.35; under setting [2], 3.06 ± 0.52.

Turning to DSQAPAGSLDLVPGGLTLEEHSLE [SPDEF], the protein stability index worked out at 5.36 ± 0.21 under setting [1] and 5.45 ± 0.33 under setting [2].

In turn, DSVKVALLETNPYLLALTIIVSIV [CLPTM1] gave a protein stability index under setting [1] of 2.08 ± 0.28 and a protein stability index under setting [2] of 2.3 ± 0.14.

As to DTFHQDNQPSGLIRTYLGRSPLVS [RHOBTB3], the protein stability index was 3.24 ± 0.1 under setting [1] and 3.24 ± 0.16 under setting [2].

For the sequence DTVFRFDPRYNKWMQVASLNEKRT [KLHL13], the protein stability index amounted to 2.87 ± 0.41 under setting [1] and 3.14 ± 0.41 under setting [2].

Consider DVVKTQRQVALGAMEAVRVNPLHV [SLC25A39], for which the protein stability index by setting is: under setting [1], 3.05 ± 0.22; under setting [2], 3.23 ± 0.13.

On to DWVMWAVNEFSLKGVDFQKFCMNG [ETS1], for which the protein stability index was 3.16 ± 0.39 under setting [1] and 3.05 ± 0.47 under setting [2].

Take DYRQEQPETFWIQRAPQLPTWWPL [SPAG8]: the protein stability index is 2.48 ± 0.15 under setting [1] and 2.57 ± 0.19 under setting [2].

On to EADPPASDLPTPQAIEPQAIVQQV [SNX8], for which the protein stability index came out at 5.34 ± 0.11 under setting [1] and 5.2 ± 0.24 under setting [2].

Consider EAGASLVDQKLELNIVPRTKVVYL [PI4K2A], for which the protein stability index reads like this: under setting [1], 2.29 ± 0.26; under setting [2], 2.34 ± 0.47.

With EAGNEFKNIFGTPEFVAPEIVNYE [DAPK3], the protein stability index came to 4.02 ± 0.1 under setting [1] and 4.66 ± 0.1 under setting [2].

For EALGFSWHDTCFVCAICQINLEGK [PDLIM7], the protein stability index reads like this: under setting [1], 2.48 ± 0.82; under setting [2], 1.63 ± 0.26.

Take EALKHPWVCQRSTVASMMHRQETV [CAMK2B]: the protein stability index runs as follows: under setting [1], 2.88 ± 0.27; under setting [2], 2.97 ± 0.21.

Turning to EAVESTLQTPLDIRLKESINCQLS [TRIM14], the protein stability index runs as follows: under setting [1], 4.38 ± 0.44; under setting [2], 4.34 ± 0.36.

EDGSVELESQVQKDGVADSTVISS [C18orf25] yielded a protein stability index under setting [1] of 5.5 ± 0.2 and a protein stability index under setting [2] of 5.42 ± 0.28.

In the case of EDHIAHIIELLGSIPRHFALSGKY [SRPK2], the protein stability index reads like this: under setting [1], 2.71 ± 0.4; under setting [2], 2.63 ± 0.58.

EDHIDDAKYCGHLYGLGSGSSYVQ [CNOT7] gave a protein stability index under setting [1] of 3.38 ± 0.16 and a protein stability index under setting [2] of 3.41 ± 0.26.

As to EDLELKKKIFAQLDSIIDDRVILS [CRYL1], the protein stability index came to 3.28 ± 0.26 under setting [1] and 3.01 ± 0.36 under setting [2].

On to EDSIFGDPKKLLTQYFVQENYLEY [MAGEA6], for which the protein stability index stood at 2.88 ± 0.34 under setting [1] and 2.62 ± 0.11 under setting [2].

With EDTPSDNDSGICMSPESYLGSPQH [ATF4], the protein stability index is, setting by setting: under setting [1], 4.66 ± 0.36; under setting [2], 4.83 ± 0.22.

Regarding EDTQTDADSSAQAAAQAPENFQEG [TAF7L], the protein stability index stood at 5.47 ± 0.52 under setting [1] and 5.57 ± 0.42 under setting [2].

In the case of EEAVTVLEDLESELDDPGQPVSLR [ZNF24], the protein stability index was determined as 5.58 ± 0.24 under setting [1] and 5.47 ± 0.21 under setting [2].

EECRMSGEFPSPVSISIISSTSGG [KRT71]: the protein stability index is, setting by setting: under setting [1], 3.59 ± 0.25; under setting [2], 3.6 ± 0.4.

For the sequence EEDENGLPRRRGLRKKKTTKLRLE [NEUROD6], the protein stability index amounted to 4.9 ± 0.28 under setting [1] and 4.94 ± 0.35 under setting [2].

Regarding EEEEEEEEVDLACTPTDVRDVDI [CCND1], the protein stability index under setting [3] amounted to 4.5 ± 0.5 and the protein stability index under setting [4] turned out to be 5.14 ± 0.34.
